In US8748407B2 (The Research Foundation for the State University of New York, priority 2010, dated 2014):

B1: AG1407: full length 100-nt RNA aptamer, most enriched SELEX sequence against GluA2Qflip (nucleic acid)
chain: GGGAGAAUUCAACUGCCAUCUAGGCAGAUUGUGAAGCGUAGGCUCGAGUUUGUCCCGCGAGCCAAAGAUUCCAGAAGUACUACAAGCUUCUGGACUCGGU
modifications: RNA, backbone not given here

Target: T1, GluA2Qflip (Rattus norvegicus, UniProt P19491)
T1 construct: expressed in transfected cells; host or cells: HEK-293S
Assay: Whole-cell current recording, GluA2Qflip in HEK-293 cells
Format: cell-based
Source text: The original cDNAs in pBlueScript encoding rat GluA1, 2 and 3 AMPA receptors and GluK2 kainate receptor were kindly provided by Steve Heinemann. The GluA4 DNA plasmid was kindly provided by Peter Seeburg. The GluK1 plasmid was kindly provided by Geoffrey Swanson. The cDNAs of all three NMDA receptor subunits were gifts from John Woodward. All DNA plasmids were propagated using Escherichia coli host (DH5α) and purified using QIAGEN DNA purification kits.
All of the receptors were transiently expressed in HEK-293S cell. HEK-293S cells were maintained in Dulbecco's modified Eagle's medium (DMEM) supplemented with 10% fetal bovine serum and 1% penicillin in a 37° C., 5% CO2, humidified incubator. Receptors were transiently transfected by using calcium phosphate or lipofectamine 2000 (Invitrogen). The DNA plasmids encoding green fluorescent protein (GFP) and T-antigen (TAg) were cotransfected in HEK-293 S cells. GFP was used as a transfection marker for cell recording, and TAg was cotransfected to potentiate the receptor expression at the single-cell level^6. Transfected cells were allowed to grow for 48 hour before they were used for recording.
The procedure for whole-cell current recording to assay the inhibitory property of an RNA aptamer is known to those of skill in the art and has been previously described^7. […] The extracellular buffer composition is described above (see “Receptor Preparation”). For recording of the NMDA channels, the intracellualr solution contained (in mM) 140 CsCl, 1 MgCl2, 0.1 EGTA, and 10 HEPES (pH 7.2 adjusted by […]), while the extracellular solution contained (in mM) 135 NaCl, 5.4 KCl, 1.8 CaCl2, 10 glucose and 5 HEPES (pH 7.2 adjusted by NaOH). In the extracellular buffer, 2 μM of glycine was added (glycine was the co-agonist of NMDA receptor)^2. All reagents including aptamer were dissolved in the corresponding extracellular buffer and used. […] The whole-cell current was recorded using an Axopatch-200B amplifier at a cutoff frequency of 2-20 kHz by a built-in, eight-pole Bessel filter and digitized at 5-50 kHz sampling frequency using a Digidata 1322A from Axon Instruments (Molecular Devices, Sunnyvale, Calif.). The pClamp 8 software (Molecular Devices) was used for data acquisition. All whole-cell recordings were at −60 mV and 22° C.
To deliver AG56 to a HEK-293 cell, a “Ψ”-shaped flow device was used. […] In all experiments reported in this study, a 6-second preincubation flow protocol was used for full aptamer preincubation. […] The corrected current amplitude was used for data analysis.
Determination of KI,app by the ratio of the current amplitude in the absence and presence of inhibitor or A/A(I)—see FIG. 5 in the text. Equ. 10a and 10b were derived based on one inhibitor binding to the receptor. KI, app is the apparent inhibition constant for the inhibitor; other terms have been defined previously.
Under this condition, the inhibition constant for the closed-channel conformation was determined from the ratio of the amplitude according to equ. 10a and 10b. Likewise, at a saturating ligand concentration (i.e., L>>K1), the majority of the receptors were in the open-channel state. Consequently, the inhibition constant associated with the open-channel conformation was measured. The basis of using the two ligand concentrations that corresponded to ˜4% and ˜96% fraction of the open-channel receptor form^7 to determine the corresponding inhibition constant was a putative difference in inhibition constant between the closed-channel and the open-channel conformation. At those low and high ligand concentrations^7, the apparent inhibition constants obtained were considered pertinent to the closed-channel and the open-channel conformations, respectively. Examples of using the current amplitude to determine the inhibition constant for an inhibitor include our previous study of two 2,3-benzodiazepine derivatives with the GluA2Qflip AMPA receptor^15.

T1 sequence (P19491 22-883 isoform P19491-2): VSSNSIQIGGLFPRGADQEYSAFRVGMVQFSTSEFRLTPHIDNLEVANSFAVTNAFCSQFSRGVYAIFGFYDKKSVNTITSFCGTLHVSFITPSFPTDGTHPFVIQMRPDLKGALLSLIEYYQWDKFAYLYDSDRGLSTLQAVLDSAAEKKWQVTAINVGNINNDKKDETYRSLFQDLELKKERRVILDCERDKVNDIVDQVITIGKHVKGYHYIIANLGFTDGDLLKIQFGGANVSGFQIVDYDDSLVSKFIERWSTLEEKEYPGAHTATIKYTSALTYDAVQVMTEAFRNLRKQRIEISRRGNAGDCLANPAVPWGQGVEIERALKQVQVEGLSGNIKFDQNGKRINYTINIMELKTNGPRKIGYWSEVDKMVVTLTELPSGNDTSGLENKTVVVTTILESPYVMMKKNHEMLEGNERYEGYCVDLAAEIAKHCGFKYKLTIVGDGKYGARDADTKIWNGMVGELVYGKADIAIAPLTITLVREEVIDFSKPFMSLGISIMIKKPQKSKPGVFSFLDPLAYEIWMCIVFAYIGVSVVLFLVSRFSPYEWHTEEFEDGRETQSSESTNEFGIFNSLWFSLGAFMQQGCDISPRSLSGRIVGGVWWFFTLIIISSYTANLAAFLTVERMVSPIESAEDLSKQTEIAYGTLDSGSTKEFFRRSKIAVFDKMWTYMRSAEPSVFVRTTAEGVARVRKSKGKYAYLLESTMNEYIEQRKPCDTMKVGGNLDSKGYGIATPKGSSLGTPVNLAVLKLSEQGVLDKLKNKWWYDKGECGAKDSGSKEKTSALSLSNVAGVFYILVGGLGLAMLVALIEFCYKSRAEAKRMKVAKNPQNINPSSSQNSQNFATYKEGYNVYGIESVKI

Row | Molecule | inhibitory function of shorter versions of AG1407, based on A/A(I) (GluA2Qflip) | A/A(I) value (0.5 μM AG1407, 0.5 mM glutamate) | A/A(I) value (0.5 μM AG1407, 3 mM glutamate) | A/A(I), ratio of current amplitudes in absence and presence of aptamer (500 nM aptamer, 3 mM glutamate) | inhibition of the open-channel conformation (GluA2Qflip, high glutamate concentration)
1 | 46 nt RNA: truncated AG1407 version with three-way junction shortened by deleting UUGUGA sequence (GGAGAAUCAACUGCCAUCUAGGCAGAAGCGUAGGCUCGAUUUGUCC; listed as RNA, chemistry not given here) | total loss of inhibitory function | – | – | – | –
2 | 48 nt RNA: truncated AG1407 version with base-paired stem in first stem-loop region truncated (GGAGAAUCAACUCAUCUAGAGAUUGUGAAGCGUAGGCUCGAUUUGUCC; listed as RNA, chemistry not given here) | total loss of inhibitory function | – | – | – | –
3 | 45 nt RNA: truncated AG1407 version with the bulge at the U50 position removed (GGUUCAACUGCCAUCUAGGCAGAUUGUGAAGCGUAGGCUCGAGCC; listed as RNA, chemistry not given here) | total loss of inhibitory function | – | – | – | –
4 | B1 | – | significantly larger than 1.0 | significantly larger than 1.0 | one of the most potent inhibitors | inhibited the open-channel
